Laboratory results published in patent US20190314479A1.

Assays:
HLA-A2 molecules [1] = assay: T2A2 peptide binding assay to HLA-A2
HLA-A2 molecules [2] = assay: T2A2 peptide binding assay to HLA-A2, negative control

Row | Substance | T2A2 Binding (HLA-A2 molecules [1]) | T2A2 Binding (HLA-A2 molecules [2])
1 | HPV-16 E6 agonist peptide E6-A1 (L19V) (peptide; other documents disagree on this pair) | 1340 | –
2 | HPV-16 E6 agonist peptide E6-A2 (C80V) (peptide; other documents disagree on this pair) | 877 | –
3 | HPV-16 E6 agonist peptide E6-A3 (Q91L/L99V) (peptide; other documents disagree on this pair) | 1280 | –
4 | HPV-16 E6 native peptide E6-1 (E6 11-19) | 853 | –
5 | HPV-16 E7 agonist peptide E7-A1 (T19V) (peptide; other documents disagree on this pair) | 1170 | –
6 | HPV-16 E7 agonist peptide E7-A2 (L15V) (peptide; other documents disagree on this pair) | 1530 | –
7 | HPV-16 E7 agonist peptide E7-A3 (T86V) (peptide; other documents disagree on this pair) | 1260 | –
8 | NEG (Negative control) (peptide) | – | 812
